According to US20220315926:
Where two headings read alike, the source gives them in different places.

What was measured:
[1] = target: T1, DEN4-NS1 (Dominica/814669/1981) (Dengue virus 4) (UniProt P09866); test: EMSA; conditions: Ds at both x; 5' biotin-dT; 2 M urea gel
T1 sequence: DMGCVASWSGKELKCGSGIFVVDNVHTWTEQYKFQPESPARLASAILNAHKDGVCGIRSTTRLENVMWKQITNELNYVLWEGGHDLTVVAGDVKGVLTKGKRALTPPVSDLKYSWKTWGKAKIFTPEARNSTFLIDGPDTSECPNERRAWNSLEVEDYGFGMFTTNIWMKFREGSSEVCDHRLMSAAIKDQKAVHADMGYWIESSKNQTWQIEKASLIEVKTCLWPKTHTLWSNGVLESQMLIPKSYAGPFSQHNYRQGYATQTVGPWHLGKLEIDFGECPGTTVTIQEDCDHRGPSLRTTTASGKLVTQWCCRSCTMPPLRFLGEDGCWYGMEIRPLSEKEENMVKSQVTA

[2] = target: T1, DEN4-NS1 (Dominica/814669/1981) (Dengue virus 4); test: SPR
[3] = target: SIN DEN1-NS1 (Singaporean variant, 96.3% homology) (Dengue virus 1) (UniProt P33478); test: SPR; conditions: Ds at both x, 25 C, 150 mM NaCl, 1 mM MgCl2
[4] = target: T2, DEN3-NS1 (Sri Lanka D3/H/IMTSSA-SRI/2000/1266) (Dengue virus 3) (UniProt Q6YMS4); test: SPR; conditions: Ds at both n; biotin-dT in 3' mini-hairpin
T2 sequence: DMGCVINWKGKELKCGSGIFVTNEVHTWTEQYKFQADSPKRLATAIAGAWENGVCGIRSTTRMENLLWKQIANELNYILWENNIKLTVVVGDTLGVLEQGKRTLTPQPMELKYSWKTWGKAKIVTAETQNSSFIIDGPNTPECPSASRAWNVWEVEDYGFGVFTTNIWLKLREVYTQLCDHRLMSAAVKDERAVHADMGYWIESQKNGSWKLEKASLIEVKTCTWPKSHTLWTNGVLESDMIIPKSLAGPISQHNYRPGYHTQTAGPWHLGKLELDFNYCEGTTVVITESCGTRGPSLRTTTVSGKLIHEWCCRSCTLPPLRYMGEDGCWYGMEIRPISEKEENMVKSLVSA

[5] = target: T3, DEN2-NS1 (Thailand/16681/84) (Dengue virus 2) (UniProt P29990); test: SPR
T3 sequence: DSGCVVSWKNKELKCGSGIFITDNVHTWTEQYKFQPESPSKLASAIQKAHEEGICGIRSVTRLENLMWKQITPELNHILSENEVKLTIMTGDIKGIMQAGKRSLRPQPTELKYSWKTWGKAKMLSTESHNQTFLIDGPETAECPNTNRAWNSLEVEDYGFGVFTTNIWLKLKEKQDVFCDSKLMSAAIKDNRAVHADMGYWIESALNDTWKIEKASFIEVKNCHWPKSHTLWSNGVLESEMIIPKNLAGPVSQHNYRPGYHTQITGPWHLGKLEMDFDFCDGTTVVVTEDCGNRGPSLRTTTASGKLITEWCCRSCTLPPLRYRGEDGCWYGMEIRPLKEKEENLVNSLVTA

[6] = target: T3, DEN2-NS1 (Thailand/16681/84) (Dengue virus 2); test: EMSA
[7] = target: T4, DEN1-NS1 (Nauru/Western Pacific/1974) (Dengue virus 1) (UniProt P17763); test: SPR; conditions: Ds unnatural base at both n; biotin-dT in 3' mini-hairpin CGCG(L)AGCG
T4 sequence: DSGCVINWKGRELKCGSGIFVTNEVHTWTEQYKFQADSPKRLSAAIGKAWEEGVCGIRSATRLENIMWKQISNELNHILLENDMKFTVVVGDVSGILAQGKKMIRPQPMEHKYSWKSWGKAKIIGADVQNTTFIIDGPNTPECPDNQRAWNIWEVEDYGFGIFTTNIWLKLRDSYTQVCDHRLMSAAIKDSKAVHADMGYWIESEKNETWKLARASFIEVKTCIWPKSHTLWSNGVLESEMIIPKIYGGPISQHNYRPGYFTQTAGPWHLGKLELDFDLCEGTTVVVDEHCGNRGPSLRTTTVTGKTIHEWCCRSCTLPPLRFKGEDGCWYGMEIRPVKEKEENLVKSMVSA

[8] = Ds at both n, biotin-dT in 3' mini-hairpin
[9] = two Ds and one diol-Pa, biotin-dT in 3' mini-hairpin

TGATATGGTCTACTGTATAATCCGCNTTCGTCATGTGGNTTGGATCTGGGTCTGGCAGACAAGCGGAGTAGTTAGACC [D4-4-78]
binding signal [1]: > 60 % shifted

CGGCGGAGACGTAACGCNTATCAAATCNAAACAGCTTAGGGTCCGCCGCGCGTAGCG [D4-3-57h (AptD4)]
Kd [2, 8]: 0.03 nM

GCACTCCATGATATGGTCTACTGAGCGAGACGATGCTGCTAAANTACGCCGTGGTNACGAAGACAGACAAGCGGAGTGTCGCGTAGCG [19D1F1-3]
Kd ([3]; biotin-dT in 3' mini-hairpin): 0.027 nM

CTCCGCTGTCAAACGGNTATCACGGCNACACACCTGCGGACAGCGGAGCGCGTAGCG [D4-1-57h]
Kd [2, 8]: 0.029 nM

TGATATGGTCTACTGTGGCGCGAGGGAATCNACGCNTATCAAATANAAACAGCTAATGACAAGCGGAGTAGTTAGACC [D4-3-78]
Kd ([2]; Ds at x (three), 5' biotin-dT): 0.034 nM

TTTTCGCACTCCATGATATGGTCTACTGAGCGAGACGATGCTGCTAAANTACGCCGTGGTNACGAAGACAGACAAGCGGAGTAGTTAGACCGTGAAA [19D1F1 (isolate, AptD1b)]
Kd ([3]; 5' biotin): 0.0091 nM

CCGCTTGTCATCTANCCTGGCCNTGTGGTACTGTAACGGCTGACAAGCGGCGCGTAGCG [D3-2-59h (AptD3)]
Kd [4]: 0.057 nM

TGATATGGTCTACTGTCTCAACGGTTGTCAAACGGNTATCACGGCNACACACCTGCGGACAAGCGGAGTAGTTAGACC [D4-1-78]
Kd ([2]; Ds at both x, 5' biotin-dT): 0.062 nM

TTTTCGCACTCCATGATATGGTCTACTGGTCCGNCTGGGAACAAGNGGCGGGAGGGANGGGTGTGGGTGCGACAAGCGGAGTAGTTAGACCGTCAAA [D2-1y-96]
Kd ([5]; two Ds and one diol-Px, 5' biotin): 0.041 nM

GGCTGGTCCGNCTGGGAACAAGNGGCGGGAGGGANGGGTGTGGGTGCGACAAGCGGACCAGCCCGCGTAGCG [AptD2e (Cont-D2, natural-base variant)]
binding signal [6]: < 10 % shifted

TGATATGGTCTACTGTCACANATCGCCGTAAAGNCGAAGAGCTGCGGAATCTAAGGTGACAAGCGGAGTAGTTAGACC [D4-2-78]
binding signal [1]: > 60 % shifted

GACGGTCTACTGGTCCGNCTGGGAACAAGNGGCGGGAGGGANGGGTGTGGGTGCGACAAGCGGAGTAGTTAGACCGTCCGCGTAGCG [D2-1d-87h]
Kd [5, 9]: 0.105 nM

GGCTGGTCCGNCTGGGAACAAGNGGCGGGAGGGANGGGTGTGGGTGCGACAAGCGGACCAGCCCGCGTAGCG [D2-1d-72h-d]
binding signal ([6]; Ds at 11 and 23, biotin-dT in 3' mini-hairpin): < 10 % shifted

GGCTGGTCCGNCTGGGAACAAGNGGCGGGAGGGANGGGTGTGGGTGCGACAAGCGGACCAGCCCGCGTAGCG [D2-1d-72h-c]
binding signal ([6]; Ds at 11, diol-Pa at 35, biotin-dT in 3' mini-hairpin): < 10 % shifted

CCCCAGACGGACTGGTGTNCTCGGNATGGCCGTCTGGGGCGCGTAGCG [D1-1-48h (AptD1)]
Kd [7]: 0.182 nM

GGCTGGTCCGACTGGGAACAAGNGGCGGGAGGGANGGGTGTGGGTGCGACAAGCGGACCAGCCCGCGTAGCG [D2-1d-72h(A) (D2-1d-72h-b)]
binding signal ([6]; Ds at position 23, diol-Pa at position 35, biotin-dT in 3' mini-hairpin): > 40 % shifted

GGCTGGTCCGNCTGGGAACAAGNGGCGGGAGGGANGGGTGTGGGTGCGACAAGCGGACCAGCCCGCGTAGCG [D2-1d-72h (AptD2)]
Kd ([5]; Ds at positions 11 and 23, diol-Pa at position 35, biotin-dT in 3' mini-hairpin): 0.104 nM

GGTCCGNCTGGGAACAAGNGGCGGGAGGGANGGGTGTGGGTGCGACAAGCGGCGCGTAGCG [D2-1d-61h]
binding signal [6, 9]: > 60 % shifted

TTTTCGCACTCCATGATATGGTCTACTGGTCCGNCTGGGAACAAGNGGCGGGAGGGANGGGTGTGGGTGCGACAAGCGGAGTAGTTAGACCGTCAAA [D2-1-96(3Ds)]
binding signal ([6]; three Ds): < 10 % shifted
